Tested on: MS2 coat protein
Assay: apparent KD of MS2 coat protein; designed switch direction (-1 OFF switch, 1 ON switch): -1; higher = weaker reporter binding
In short: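 Three titration conditions were used: no input, 200 uM small-molecule ligand, and an oligonucleotide input. In each, SNAP-549-labelled MS2 coat protein was raised from 0.7 or 1.5 nM, doubling, to 3 µM over designed RNA switches transcribed on Illumina chips by stalled E. coli RNA polymerase. Curve fits of normalised cluster fluorescence gave values whose per-design median over clusters is the apparent KD.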

[1] = Eterna round: R95, input ligand: microRNA oligo, concentration not stated
[2] = Eterna round: R95, input ligand: FMN 200 uM
[3] = Eterna round: R95, input ligand: none
[4] = input ligand: microRNA oligo, concentration not stated

GGAUCUUGGGUCAGGAUAUGCUGAUAGUUAUGUCAGCAGAAGGGACAUGAGGAUCACCCAUGUGCUCGGUUUUG [Magic-18] (puzzle: Brourd's mod of Exclusion 4)
apparent KD of MS2 coat protein [1]: 11.3 nM

AGAGCUGCCCAUGACCGCAAGCUUUUUGCUUGUCUUACCACAUGAGGAUCACCCAUGUGACAUGGGCUCCUUAUAAA [Azavees] (puzzle: Sensor v3, turn-off variant 2)
apparent KD of MS2 coat protein [2]: 13.9 nM
apparent KD of MS2 coat protein [1]: 9.41 nM
apparent KD of MS2 coat protein [3]: 13.3 nM

ACCUAAAAGCUAGGAUAUACAUGAGGAUCACCCAUGUACACAGGUAGACUAACCUGUGGACUCAUGUAGAAGGAGCAUGACAAA [Erongebe] (Eterna round: R96, puzzle: Exclusion NG 2)
apparent KD of MS2 coat protein (input ligand: FMN 200 uM): 111 nM
apparent KD of MS2 coat protein [4]: 240 nM
apparent KD of MS2 coat protein (input ligand: none): 363 nM

CGAUGGCGAGGAUAUACAUGAGGAUCACCCAUGUGAGAGAUACUAGUGAGGUCGAUUAGUAGAAGGCGCUGUCG [Mat - Exclusion 3 - Eli Mod - D70] (Eterna round: R97, puzzle: Exclusion 3)
apparent KD of MS2 coat protein (input ligand: FMN 200 uM): 883 nM
apparent KD of MS2 coat protein (input ligand: none): 38.6 nM

GUGCCGCGAGGAUAUACAGACGGGUCCAAUACGUGUCUCGGACUUGAGGAUCACCCAAGUAGAAGGCUUUUCAG [LRO-Excl2-11-mod _r4_621 by salish99] (Eterna round: R97, puzzle: Exclusion 2)
apparent KD of MS2 coat protein (input ligand: FMN 200 uM): 27.7 nM
apparent KD of MS2 coat protein (input ligand: none): 27.7 nM

GCUAGAGCAGGAUAUUUAAAUCCUCACAUGAGGAUCACCCAUGUAGUCGAAAGACUAAGAAGAGAAGGGCUCUAGC [Omei Ex5 E20] (Eterna round: R97, puzzle: Exclusion 5)
apparent KD of MS2 coat protein (input ligand: FMN 200 uM): 951 nM
apparent KD of MS2 coat protein (input ligand: none): 230 nM

GAAAAGGUAGGAUAUACGAAAAAAAAGGGUAGAAAAAGAACACAUGAGGAUCACCCAUGUAGAAGGACCAAAAG [salish99_ex2_r3_020] (puzzle: Exclusion 2)
apparent KD of MS2 coat protein [2]: 72.8 nM
apparent KD of MS2 coat protein [1]: 20.9 nM
apparent KD of MS2 coat protein [3]: 20.3 nM

ACCUCACAUGAGGAUCACCCAUGUCAGGAUAUGUACCUGGUCUAGUCAAAGACCAGAAGCAGAAGGGACUGCGG [Ria] (puzzle: Exclusion 1)
apparent KD of MS2 coat protein [2]: 29.7 nM
apparent KD of MS2 coat protein [1]: 87.8 nM
apparent KD of MS2 coat protein [3]: 106 nM

UACAUGAGGAUCACCCAUGUUUUGUCGUGUAUGGUAUUUAUCUAGGAUAUCAAUGUAAUUAUUUAUGAGAAGGAGAAUAUUAAU [JMF's solution 40] (Eterna round: R96, puzzle: Exclusion NG 3)
apparent KD of MS2 coat protein (input ligand: FMN 200 uM): 41.2 nM
apparent KD of MS2 coat protein [4]: 36.1 nM
apparent KD of MS2 coat protein (input ligand: none): 44.7 nM

CUGGUGUGAGGAUAUCAGGACACAUCCGCGGGCGUGUCAAAUGAGAAGGCACAUGAGGAUCACCCAUGUGGGAC [Onquveatge] (puzzle: Exclusion 4)
apparent KD of MS2 coat protein [2]: 57.1 nM
apparent KD of MS2 coat protein [1]: 44.2 nM
apparent KD of MS2 coat protein [3]: 53.2 nM

UAAAAGGAAGGAUAUACACUUCAAAACCUCAUGUGACUUUCACAUGAGGAUCACCCAUGUAGAAGGUCCAAGGC [Letior] (puzzle: Exclusion 2)
apparent KD of MS2 coat protein [1]: 21.5 nM

GGUGGCUGCGUGAGACAUGAGGAUCACCCAUGUUACCGAACAAAGGAUAUAGAAGCACACAGCUACUAGAAGGUUGAAAAGAAA [Requen] (Eterna round: R96, puzzle: Exclusion NG 3)
apparent KD of MS2 coat protein (input ligand: FMN 200 uM): 12.2 nM
apparent KD of MS2 coat protein [4]: 16.2 nM
apparent KD of MS2 coat protein (input ligand: none): 19.6 nM

UUUAUGUCAGGAUAUACAUGAGGAUCACCCAUGUAUAUCUUAAGGUAUACAUGGGAAUGUAGAAGGGACCUCCU [Omei Ex3 Pseudoloop 7] (Eterna round: R97, puzzle: Exclusion 3)
apparent KD of MS2 coat protein (input ligand: FMN 200 uM): 40.7 nM
apparent KD of MS2 coat protein (input ligand: none): 41.3 nM

UUUUAGCGAGGAUAUACAUUUUUUUUAUUAUCCUCAUUAUUACAUGAGGAUCACCCAUGUAGAAGGCGCAUUUU [My Design] (puzzle: Exclusion 2)
apparent KD of MS2 coat protein [1]: 48.9 nM

UGUUGUCGCGCAGGAUAUUGUCAACAGGCAAUAGGAUAUCCGAAAGGAGAAGGAUCGCCAACAGGCGAGAAGGGCGGGACAACU [pwkr exNG2 2xF7 2xFMN.4] (Eterna round: R96, puzzle: Exclusion NG 2)
apparent KD of MS2 coat protein (input ligand: FMN 200 uM): 35.4 nM
apparent KD of MS2 coat protein [4]: 478 nM
apparent KD of MS2 coat protein (input ligand: none): 1200 nM

UUUAGUUCAGGAUAUGUAGAUUUUAACAUGAGGAUCACCCAUGUAGAUCCUGAAUUAACUACAGAAGGGAACAUUU [Exclusion 5: 2:a] (puzzle: Exclusion 5)
apparent KD of MS2 coat protein [1]: 24.9 nM

GAUUAUGCGAGCUUUAGGGACAUGAGGAUCACCCAUGUUCGUCUUAUUGGUCUGGAUGCACUGACAUACCUAAAUCU [JMF 82] (puzzle: Sensor v3, turn-off variant 1)
apparent KD of MS2 coat protein [2]: 17.1 nM
apparent KD of MS2 coat protein [1]: 25.5 nM
apparent KD of MS2 coat protein [3]: 21.5 nM

AAGUACCGUCACGAUAGUGAUGGUACAACAAGCAUGUAAACAUGAGGAUCACCCAUGUCCUCGAUUGCUCGUCUUAU [Sensor 3 - 67] (puzzle: Sensor v3, turn-off variant 2)
apparent KD of MS2 coat protein [2]: 527 nM
apparent KD of MS2 coat protein [1]: 601 nM
apparent KD of MS2 coat protein [3]: 537 nM

CCCGUGUUAGGAUAUACGGCACACCCACAAACGGGUAUAUAGUAGAAGGAACAUGAGGAUCACCCAUGUAAAAC [Qubexeer] (puzzle: Exclusion 4)
apparent KD of MS2 coat protein [1]: 18.5 nM

AUUUGCUCGUCUACUCAAAACAUGAGGAUCACCCAUGUCGGAUUGGAUCCUACCCAGUCAAGACCAUACUCCUCGAC [Eternabot (Original) Solution 39] (Eterna round: R97, puzzle: Sensor, turn-off variant 1)
apparent KD of MS2 coat protein (input ligand: FMN 200 uM): 342 nM
apparent KD of MS2 coat protein (input ligand: none): 344 nM

UAAUUCAGAGGAUAUGCGCAUAGAUAAGACUUUUUUUUUUAACAUGAGGAUCACCCAUGUAGAAGGCUGUAAUU [Ex2 #54] (Eterna round: R97, puzzle: Exclusion 2)
apparent KD of MS2 coat protein (input ligand: FMN 200 uM): 24 nM
apparent KD of MS2 coat protein (input ligand: none): 23.1 nM

UUCACAUGGACAUGAGAUCACAUGAGGAUCACCCAUGUGAAUAACAAGCUUUUUGCUCGUCUUAUGUCCAAUAAUAG [Stov1/14-C2] (Eterna round: R97, puzzle: Sensor, turn-off variant 1)
apparent KD of MS2 coat protein (input ligand: FMN 200 uM): 13.7 nM
apparent KD of MS2 coat protein (input ligand: none): 12.6 nM

AGAGUGCUGCGAGGAUAUACAUGAGGAUCACCCAUGUAUUAGUGUGAGGCAAAGCCUCACACAAUGUAGAAGGCGCAGUACUCA [Mat - Exclusion NG 2 - Mod of JL - D9] (Eterna round: R96, puzzle: Exclusion NG 2)
apparent KD of MS2 coat protein (input ligand: FMN 200 uM): 8.83 nM
apparent KD of MS2 coat protein [4]: 12.2 nM
apparent KD of MS2 coat protein (input ligand: none): 18.4 nM

CACAAGCUUUUUUGAUGCAUUUUAGUUGGUGUGCUUUUUACAUGAGGAUCACCCAUGUUUAUGAAGCUCGAUCUUUU [JR_SV3TOV2_Sub080] (puzzle: Sensor v3, turn-off variant 2)
apparent KD of MS2 coat protein [2]: 14 nM
apparent KD of MS2 coat protein [1]: 15 nM
apparent KD of MS2 coat protein [3]: 12.8 nM

UUUUUCAGGCCAGAUCCUCACAUGAGGAUCACCCAUGUGCUCGUCUGUUUUCGCACUAUCUUUUUUUUGUUAGUGCU [Level Boss var2-14] (puzzle: Sensor v3, turn-off variant 1)
apparent KD of MS2 coat protein [2]: 287 nM
apparent KD of MS2 coat protein [1]: 22.7 nM
apparent KD of MS2 coat protein [3]: 322 nM

CCCUGCAACUGAGGAUAUCACGGACACCGACGUUGAGAAGGCAGACAUGAGGAUCACCCAUGUGAUUUCUCAAUGCUAAACAUU (Eterna round: R96, puzzle: Exclusion NG 1)
apparent KD of MS2 coat protein (input ligand: FMN 200 uM): 66.4 nM
apparent KD of MS2 coat protein [4]: 29.6 nM
apparent KD of MS2 coat protein (input ligand: none): 36.8 nM

GCGCCAUCGUGAGAUGGCGUAAGUACAUGAGGAUCACCCAUGUAGGAUAUCGAUUGCUUUGCAGUCGAGAAGGGCGUGAUAAGU [JL ENG3 3.81] (Eterna round: R96, puzzle: Exclusion NG 3)
apparent KD of MS2 coat protein (input ligand: FMN 200 uM): 97.3 nM
apparent KD of MS2 coat protein [4]: 64.1 nM
apparent KD of MS2 coat protein (input ligand: none): 76.9 nM

UGGCGUUAAGGAUAUACAUGAGGAUCACCCAUGUUUCGGGAGAGCCAUUGAGCCGCAAGUAGAAGGUAGUACCC [Eternabot (L2) Solution 23] (Eterna round: R97, puzzle: Exclusion 3)
apparent KD of MS2 coat protein (input ligand: FMN 200 uM): 37.4 nM
apparent KD of MS2 coat protein (input ligand: none): 47.9 nM

UUUUAACAUGAGGAUCACCCAUGUGAGGAUAUCGAAAUUUAUAUUUAUAUUAAUUUUACGAGAAGGCACAUUUU [JMF 90] (puzzle: Exclusion 1)
apparent KD of MS2 coat protein [1]: 120 nM

AAAUCGCAAGGAUAUCGUCAGUCUGACAUGAGGAUCACCCAUGUUAUCUUGGUAUCAGAGCGAGAAGGUGCAAAGU [Erbied] (puzzle: Exclusion 5)
apparent KD of MS2 coat protein [1]: 12.5 nM

CUUGAAUAAGUGAGGAUAUACUGUUAGUAAUGAUUGUAGAAGGUACAUGAGGAUCACCCAUGUUUAUUCUUUAU [JR_BME4_Sub040] (puzzle: Brourd's mod of Exclusion 4)
apparent KD of MS2 coat protein [1]: 14.5 nM

AGGUGACUGGUGAGGAUAUCGUGUUCGAAAGAACGUGAGAAGGCACAUGAGGAUCACCCAUGUGAUCCUCAUCG [Omei Ex4B A30] (Eterna round: R97, puzzle: Brourd's mod of Exclusion 4)
apparent KD of MS2 coat protein (input ligand: FMN 200 uM): 101 nM
apparent KD of MS2 coat protein (input ligand: none): 27 nM

CAUGUGUAAGGAUAUGACAAUGGUAUCUUCGGAUACCAUUGUCAGAAGGUACAUGAGGAUCACCCAUGUAGAUC [Ex4-3: 16] (puzzle: Exclusion 4)
apparent KD of MS2 coat protein [1]: 48.6 nM

CCGGAAAUGAAGGAUAUAGGUGUCGAUAGACUCCUAGAAGGUCAUACAUGAGGAUCACCCAUGUGUCCUACCGG [Fiskers Ex 6 - 76] (puzzle: Exclusion 6)
apparent KD of MS2 coat protein [1]: 15.6 nM

AGCCAUCUUGUGAGGAUAUGCCCUGGUCAAAGCCGGUAGAAGGUACAUGAGGAUCACCCAUGUGAACUAAUCUA [Eternabot (L1) Solution 90] (Eterna round: R97, puzzle: Brourd's mod of Exclusion 4)
apparent KD of MS2 coat protein (input ligand: FMN 200 uM): 14.1 nM
apparent KD of MS2 coat protein (input ligand: none): 16.2 nM

CGCAUACAUGAGGAUCACCCAUGUGAGGAUAUCAUGCUUCGUAGUAAACUACGAAGUGUGAGAAGGCACAUGCG [Omei Ex1 D2] (Eterna round: R97, puzzle: Exclusion 1)
apparent KD of MS2 coat protein (input ligand: FMN 200 uM): 112 nM
apparent KD of MS2 coat protein (input ligand: none): 62.6 nM

— the supplement of paper PMC9170038
